Data on 45 variants can be found in the Human Domainome abundance scans (Beltran et al. 2025).

The chains are these.
B1: CD2-associated protein, residues 1 to 59; numbered along this chain, Q9Y5K6 (parent)
chain: MVDYIVEYDYDAVHDDELTIRVGEIIRNVKKLQEEGWLEGELNGRRGMFPDNFVKEIKR

± gives the uncertainty stated by the source.

The series covers variants of B1. Put plainly: abundance fitness (aPCA) (normalised: wild type 0, dead -1); higher = more abundant; growth selection in yeast, the domain comes from the species named. Particulars: Homo sapiens.
For MVCYIVEYDYDAVHDDELTIRVGEIIRNVKKLQEEGWLEGELNGRRGMFPDNFVKEIKR [D3C], the abundance fitness is -0.237 ± 0.085.

MVIYIVEYDYDAVHDDELTIRVGEIIRNVKKLQEEGWLEGELNGRRGMFPDNFVKEIKR [D3I]: the abundance fitness is -0.453 ± 0.094. The value for MVLYIVEYDYDAVHDDELTIRVGEIIRNVKKLQEEGWLEGELNGRRGMFPDNFVKEIKR [D3L] was -0.267 ± 0.051; that for MVHYIVEYDYDAVHDDELTIRVGEIIRNVKKLQEEGWLEGELNGRRGMFPDNFVKEIKR [D3H] was -0.188 ± 0.1; that for MVNYIVEYDYDAVHDDELTIRVGEIIRNVKKLQEEGWLEGELNGRRGMFPDNFVKEIKR [D3N] was 0.012 ± 0.18.

In the case of MVEYIVEYDYDAVHDDELTIRVGEIIRNVKKLQEEGWLEGELNGRRGMFPDNFVKEIKR [D3E], the abundance fitness was 0.014 ± 0.065.

Consider MVMYIVEYDYDAVHDDELTIRVGEIIRNVKKLQEEGWLEGELNGRRGMFPDNFVKEIKR [D3M], for which the abundance fitness is -0.135 ± 0.072. MVAYIVEYDYDAVHDDELTIRVGEIIRNVKKLQEEGWLEGELNGRRGMFPDNFVKEIKR [D3A]: the abundance fitness was -0.232 ± 0.066.

Take MVKYIVEYDYDAVHDDELTIRVGEIIRNVKKLQEEGWLEGELNGRRGMFPDNFVKEIKR [D3K]: the abundance fitness was -0.297 ± 0.079.

Consider MVGYIVEYDYDAVHDDELTIRVGEIIRNVKKLQEEGWLEGELNGRRGMFPDNFVKEIKR [D3G], for which the abundance fitness was -0.437 ± 0.065.

Consider MVPYIVEYDYDAVHDDELTIRVGEIIRNVKKLQEEGWLEGELNGRRGMFPDNFVKEIKR [D3P], for which the abundance fitness was -0.436 ± 0.11.

As for GVDYIVEYDYDAVHDDELTIRVGEIIRNVKKLQEEGWLEGELNGRRGMFPDNFVKEIKR [M1G], the abundance fitness is -0.14 ± 0.14. As for AVDYIVEYDYDAVHDDELTIRVGEIIRNVKKLQEEGWLEGELNGRRGMFPDNFVKEIKR [M1A], the abundance fitness amounted to 0.05 ± 0.4.

IVDYIVEYDYDAVHDDELTIRVGEIIRNVKKLQEEGWLEGELNGRRGMFPDNFVKEIKR [M1I]: the abundance fitness was found to be 0.078 ± 0.17. For the variant EVDYIVEYDYDAVHDDELTIRVGEIIRNVKKLQEEGWLEGELNGRRGMFPDNFVKEIKR [M1E], the abundance fitness was -0.276 ± 0.23. Consider CVDYIVEYDYDAVHDDELTIRVGEIIRNVKKLQEEGWLEGELNGRRGMFPDNFVKEIKR [M1C], for which the abundance fitness is -0.28 ± 0.15. For the variant YVDYIVEYDYDAVHDDELTIRVGEIIRNVKKLQEEGWLEGELNGRRGMFPDNFVKEIKR [M1Y], the abundance fitness was -0.375 ± 0.37. Regarding HVDYIVEYDYDAVHDDELTIRVGEIIRNVKKLQEEGWLEGELNGRRGMFPDNFVKEIKR [M1H], the abundance fitness is -0.209 ± 0.21. For the variant QVDYIVEYDYDAVHDDELTIRVGEIIRNVKKLQEEGWLEGELNGRRGMFPDNFVKEIKR [M1Q], the abundance fitness was -0.301 ± 0.34. The value for NVDYIVEYDYDAVHDDELTIRVGEIIRNVKKLQEEGWLEGELNGRRGMFPDNFVKEIKR [M1N] was -0.425 ± 0.34; that for VVDYIVEYDYDAVHDDELTIRVGEIIRNVKKLQEEGWLEGELNGRRGMFPDNFVKEIKR [M1V] was -0.153 ± 0.15; that for FVDYIVEYDYDAVHDDELTIRVGEIIRNVKKLQEEGWLEGELNGRRGMFPDNFVKEIKR [M1F] was -0.137 ± 0.38.

Consider WVDYIVEYDYDAVHDDELTIRVGEIIRNVKKLQEEGWLEGELNGRRGMFPDNFVKEIKR [M1W], for which the abundance fitness was -0.163 ± 0.1.

SVDYIVEYDYDAVHDDELTIRVGEIIRNVKKLQEEGWLEGELNGRRGMFPDNFVKEIKR [M1S]: the abundance fitness was 0.072 ± 0.14. For LVDYIVEYDYDAVHDDELTIRVGEIIRNVKKLQEEGWLEGELNGRRGMFPDNFVKEIKR [M1L], the abundance fitness was determined as 0.015 ± 0.097. The value for RVDYIVEYDYDAVHDDELTIRVGEIIRNVKKLQEEGWLEGELNGRRGMFPDNFVKEIKR [M1R] was -0.083 ± 0.12; that for TVDYIVEYDYDAVHDDELTIRVGEIIRNVKKLQEEGWLEGELNGRRGMFPDNFVKEIKR [M1T] was -0.228 ± 0.11; that for KVDYIVEYDYDAVHDDELTIRVGEIIRNVKKLQEEGWLEGELNGRRGMFPDNFVKEIKR [M1K] was 0.142 ± 0.12. For the variant MEDYIVEYDYDAVHDDELTIRVGEIIRNVKKLQEEGWLEGELNGRRGMFPDNFVKEIKR [V2E], the abundance fitness is -0.031 ± 0.096. With MFDYIVEYDYDAVHDDELTIRVGEIIRNVKKLQEEGWLEGELNGRRGMFPDNFVKEIKR [V2F], the abundance fitness was determined as 0.008 ± 0.14. In the case of MWDYIVEYDYDAVHDDELTIRVGEIIRNVKKLQEEGWLEGELNGRRGMFPDNFVKEIKR [V2W], the abundance fitness was -0.138 ± 0.2. For the variant MDDYIVEYDYDAVHDDELTIRVGEIIRNVKKLQEEGWLEGELNGRRGMFPDNFVKEIKR [V2D], the abundance fitness was -0.119 ± 0.22.

In the case of MCDYIVEYDYDAVHDDELTIRVGEIIRNVKKLQEEGWLEGELNGRRGMFPDNFVKEIKR [V2C], the abundance fitness is -0.062 ± 0.12. As to MTDYIVEYDYDAVHDDELTIRVGEIIRNVKKLQEEGWLEGELNGRRGMFPDNFVKEIKR [V2T], the abundance fitness was -0.095 ± 0.2.

In the case of MIDYIVEYDYDAVHDDELTIRVGEIIRNVKKLQEEGWLEGELNGRRGMFPDNFVKEIKR [V2I], the abundance fitness was determined as 0.054 ± 0.16. In the case of MRDYIVEYDYDAVHDDELTIRVGEIIRNVKKLQEEGWLEGELNGRRGMFPDNFVKEIKR [V2R], the abundance fitness was -0.084 ± 0.099.

With MADYIVEYDYDAVHDDELTIRVGEIIRNVKKLQEEGWLEGELNGRRGMFPDNFVKEIKR [V2A], the abundance fitness is -0.074 ± 0.071. On to MKDYIVEYDYDAVHDDELTIRVGEIIRNVKKLQEEGWLEGELNGRRGMFPDNFVKEIKR [V2K], for which the abundance fitness came to 0.086 ± 0.093. MMDYIVEYDYDAVHDDELTIRVGEIIRNVKKLQEEGWLEGELNGRRGMFPDNFVKEIKR [V2M]: the abundance fitness was 0.087 ± 0.12. Turning to MYDYIVEYDYDAVHDDELTIRVGEIIRNVKKLQEEGWLEGELNGRRGMFPDNFVKEIKR [V2Y], the abundance fitness was -0.166 ± 0.22. MHDYIVEYDYDAVHDDELTIRVGEIIRNVKKLQEEGWLEGELNGRRGMFPDNFVKEIKR [V2H]: the abundance fitness was -0.486 ± 0.21. As for MQDYIVEYDYDAVHDDELTIRVGEIIRNVKKLQEEGWLEGELNGRRGMFPDNFVKEIKR [V2Q], the abundance fitness was -0.224 ± 0.18. As to MNDYIVEYDYDAVHDDELTIRVGEIIRNVKKLQEEGWLEGELNGRRGMFPDNFVKEIKR [V2N], the abundance fitness amounted to 0.064 ± 0.27. MSDYIVEYDYDAVHDDELTIRVGEIIRNVKKLQEEGWLEGELNGRRGMFPDNFVKEIKR [V2S]: the abundance fitness was -0.029 ± 0.15. Next, MLDYIVEYDYDAVHDDELTIRVGEIIRNVKKLQEEGWLEGELNGRRGMFPDNFVKEIKR [V2L]: -0.087 ± 0.074.
